Assay results from patent publication US20250051735A1 (VANDERBILT UNIVERSITY, published 2025).

Molecular target: the molecule itself
Test: sedimentation velocity analytical ultracentrifugation (self-association)
Procedure: Sedimentation velocity data were collected at 50,000 rpm and 20° C. on a Beckman Coulter ProteomeLab XL-I analytical ultracentrifuge following standard protocols (Zhao, H., et al. Curr Protoc Protein Sci, 2013 Chapter 20, Unit20 12). 2-channel, 12 mm centerpiece cells were used, and sedimentation was monitored with the absorbance (280 nm) and Rayleigh interference (655 nm) detection systems. A continuous c(s) distribution of Lamm equation solutions, as implemented in SEDFIT (Schuck, P. Biophys J 2000 78:1606-1619), modeled the sedimentation data. […] (Cole, J. L., et al. Methods Cell Biol 2008 84:143-179) provided the solution densities ρ, solution viscosities η, and protein partial specific volumes required for the analysis.
The N-terminus is required for transposase dimerization prior to transposon end binding. Although an attempt was made to explore the role of the piggyBac transposase N-terminus using purified proteins, no soluble N-terminally truncated transposases was recovered under conditions successfully used for the WT transposase in EXPI293F cells (Chen, Q., et al. Nat Commun, 2020 11:3446). To circumvent this, a TEV protease cleavage site was introduced between resides 74 and 75 which allowed expression and purification of a full-length protein and then proteolytical removal of the first 74 amino acids.

B1: PB74-539 transposase generated by proteolytic cleavage (TEV-cleaved TEVΔ74PB1-539) (enzyme)
chain: GSSLASNRILTLPQRTIRGKNKHCWSTSKSTRRSRVSALNIVRSQRGPTRMCRNIYDPLLCFKLFFTDEIISEIVKWTNAEISLKRRESMTGATFRDTNEDEIYAFFGILVMTAVRKDNHMSTDDLFDRSLSMVYVSVMSRDRFDFLIRCLRMDDKSIRPTLRENDVFTPVRKIWDLFIHQCIQNYTPGAHLTIDEQLLGFRGRCPFRMYIPNKPSKYGIKILMMCDSGTKYMINGMPYLGRGTQTNGVPLGEYYVKELSKPVHGSCRNITCDNWFTSIPLAKNLLQEPYKLTIVGTVRSNKREIPEVLKNSRSRPVGTSMFCFDGPLTLVSYKPKPAKMVYLLSSCDEDASINESTGKPQMVMYYNQTKGGVDTLDQMCSVMTCSRKTNRWPMALLYGMINIACINSFIIYSHNVSSKGEKVQSRKKFMRNLYMSLTSSFMRKRLEAPTLKRYLRDNISNILPNE
B1: no binding.
